He/Con_2aH and Ho/Con_2aH data for 21 molecules are collected here from patent publication US20180155451A1 (published 2018).

B1: GpH7-A5/GpH7-B3 variant S337_08L/GpL16-k0 (antibody, human IgG1, kappa)
heavy 1: not shown
heavy 2: not shown
light: DIVMTQSPLSLPVTPGEPASISCQASESLVHSNRNTYLHWYLQKPGQSPQLLIYKVSNRFSGVPDRFSGSGSGTDFTLKISRVEAEDVGVYYCSQNTHVPPTFGQGTKVEIERTVAAPSVFIFPPSDEQLKSGTASVVCLLNNFYPREAKVQWKVDNALQSGNSQESVTEQDSKDSTYSLSSTLTLSKADYEKHKVYACEVTHQGLSSPVTKSFNRGEC
notes: heterodimerized, mutation in one H chain only; also called He Ab
B2: GpH7-A5/GpH7-B3 variant S337_20W/GpL16-k0 (antibody, human IgG1, kappa)
heavy 1: not shown
heavy 2: not shown
light: DIVMTQSPLSLPVTPGEPASISCQASESLVHSNRNTYLHWYLQKPGQSPQLLIYKVSNRFSGVPDRFSGSGSGTDFTLKISRVEAEDVGVYYCSQNTHVPPTFGQGTKVEIERTVAAPSVFIFPPSDEQLKSGTASVVCLLNNFYPREAKVQWKVDNALQSGNSQESVTEQDSKDSTYSLSSTLTLSKADYEKHKVYACEVTHQGLSSPVTKSFNRGEC
notes: as for B1
B3: GpH7-B3 variant K334_13S/GpL16-k0 (antibody, human IgG1, kappa)
heavy: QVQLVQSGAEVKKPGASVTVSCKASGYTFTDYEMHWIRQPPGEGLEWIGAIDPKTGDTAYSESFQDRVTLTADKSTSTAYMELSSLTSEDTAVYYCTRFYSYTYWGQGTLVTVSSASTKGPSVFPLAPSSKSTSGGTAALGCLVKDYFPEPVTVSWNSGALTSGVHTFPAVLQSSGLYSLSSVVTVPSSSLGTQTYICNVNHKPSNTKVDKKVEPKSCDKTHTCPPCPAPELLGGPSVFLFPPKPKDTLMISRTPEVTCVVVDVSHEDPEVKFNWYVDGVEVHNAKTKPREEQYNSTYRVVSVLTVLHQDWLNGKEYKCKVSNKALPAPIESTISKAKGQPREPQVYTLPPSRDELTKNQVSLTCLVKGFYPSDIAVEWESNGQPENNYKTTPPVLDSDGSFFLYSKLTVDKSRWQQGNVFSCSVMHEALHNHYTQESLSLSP
light: DIVMTQSPLSLPVTPGEPASISCQASESLVHSNRNTYLHWYLQKPGQSPQLLIYKVSNRFSGVPDRFSGSGSGTDFTLKISRVEAEDVGVYYCSQNTHVPPTFGQGTKVEIERTVAAPSVFIFPPSDEQLKSGTASVVCLLNNFYPREAKVQWKVDNALQSGNSQESVTEQDSKDSTYSLSSTLTLSKADYEKHKVYACEVTHQGLSSPVTKSFNRGEC
notes: homodimerized, mutation in both H chains; also called Ho Ab
B4: GpH7-B3 variant G236_04F/GpL16-k0 (antibody, human IgG1, kappa)
heavy: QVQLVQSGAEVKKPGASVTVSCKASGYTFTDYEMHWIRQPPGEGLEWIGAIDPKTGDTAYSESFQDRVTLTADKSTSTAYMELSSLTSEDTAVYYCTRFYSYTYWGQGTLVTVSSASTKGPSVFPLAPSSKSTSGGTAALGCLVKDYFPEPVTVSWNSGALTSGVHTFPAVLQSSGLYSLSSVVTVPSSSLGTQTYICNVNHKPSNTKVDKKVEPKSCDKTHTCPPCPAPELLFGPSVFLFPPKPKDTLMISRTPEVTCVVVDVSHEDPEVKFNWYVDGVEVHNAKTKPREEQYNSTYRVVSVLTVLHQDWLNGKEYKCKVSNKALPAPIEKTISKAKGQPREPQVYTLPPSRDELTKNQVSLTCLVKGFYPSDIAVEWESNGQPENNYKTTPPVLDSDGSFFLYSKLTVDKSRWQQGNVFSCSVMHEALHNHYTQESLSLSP
light: DIVMTQSPLSLPVTPGEPASISCQASESLVHSNRNTYLHWYLQKPGQSPQLLIYKVSNRFSGVPDRFSGSGSGTDFTLKISRVEAEDVGVYYCSQNTHVPPTFGQGTKVEIERTVAAPSVFIFPPSDEQLKSGTASVVCLLNNFYPREAKVQWKVDNALQSGNSQESVTEQDSKDSTYSLSSTLTLSKADYEKHKVYACEVTHQGLSSPVTKSFNRGEC
notes: as for B3
B5: GpH7-B3 variant K326_07I/GpL16-k0 (antibody, human IgG1, kappa)
heavy: not shown
light: DIVMTQSPLSLPVTPGEPASISCQASESLVHSNRNTYLHWYLQKPGQSPQLLIYKVSNRFSGVPDRFSGSGSGTDFTLKISRVEAEDVGVYYCSQNTHVPPTFGQGTKVEIERTVAAPSVFIFPPSDEQLKSGTASVVCLLNNFYPREAKVQWKVDNALQSGNSQESVTEQDSKDSTYSLSSTLTLSKADYEKHKVYACEVTHQGLSSPVTKSFNRGEC
notes: as for B3
B6: GpH7-B3 variant K326_01G/GpL16-k0 (antibody, human IgG1, kappa)
heavy: not shown
light: DIVMTQSPLSLPVTPGEPASISCQASESLVHSNRNTYLHWYLQKPGQSPQLLIYKVSNRFSGVPDRFSGSGSGTDFTLKISRVEAEDVGVYYCSQNTHVPPTFGQGTKVEIERTVAAPSVFIFPPSDEQLKSGTASVVCLLNNFYPREAKVQWKVDNALQSGNSQESVTEQDSKDSTYSLSSTLTLSKADYEKHKVYACEVTHQGLSSPVTKSFNRGEC
notes: as for B3
B7: GpH7-B3 variant I336_18N/GpL16-k0 (antibody, human IgG1, kappa)
heavy: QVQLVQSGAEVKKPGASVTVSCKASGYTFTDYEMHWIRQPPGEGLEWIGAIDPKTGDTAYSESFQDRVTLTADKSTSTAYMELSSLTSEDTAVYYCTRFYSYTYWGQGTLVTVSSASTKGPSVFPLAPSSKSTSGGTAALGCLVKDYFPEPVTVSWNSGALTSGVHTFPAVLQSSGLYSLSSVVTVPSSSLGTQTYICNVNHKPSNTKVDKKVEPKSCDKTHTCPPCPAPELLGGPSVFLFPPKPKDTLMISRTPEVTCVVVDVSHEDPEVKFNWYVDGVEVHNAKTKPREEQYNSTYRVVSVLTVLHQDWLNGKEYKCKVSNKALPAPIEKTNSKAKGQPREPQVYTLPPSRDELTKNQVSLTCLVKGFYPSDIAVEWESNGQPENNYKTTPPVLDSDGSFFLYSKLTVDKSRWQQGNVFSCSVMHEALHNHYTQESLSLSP
light: DIVMTQSPLSLPVTPGEPASISCQASESLVHSNRNTYLHWYLQKPGQSPQLLIYKVSNRFSGVPDRFSGSGSGTDFTLKISRVEAEDVGVYYCSQNTHVPPTFGQGTKVEIERTVAAPSVFIFPPSDEQLKSGTASVVCLLNNFYPREAKVQWKVDNALQSGNSQESVTEQDSKDSTYSLSSTLTLSKADYEKHKVYACEVTHQGLSSPVTKSFNRGEC
notes: as for B3
B8: GpH7-B3 variant L234_15Y/GpL16-k0 (antibody, human IgG1, kappa)
heavy: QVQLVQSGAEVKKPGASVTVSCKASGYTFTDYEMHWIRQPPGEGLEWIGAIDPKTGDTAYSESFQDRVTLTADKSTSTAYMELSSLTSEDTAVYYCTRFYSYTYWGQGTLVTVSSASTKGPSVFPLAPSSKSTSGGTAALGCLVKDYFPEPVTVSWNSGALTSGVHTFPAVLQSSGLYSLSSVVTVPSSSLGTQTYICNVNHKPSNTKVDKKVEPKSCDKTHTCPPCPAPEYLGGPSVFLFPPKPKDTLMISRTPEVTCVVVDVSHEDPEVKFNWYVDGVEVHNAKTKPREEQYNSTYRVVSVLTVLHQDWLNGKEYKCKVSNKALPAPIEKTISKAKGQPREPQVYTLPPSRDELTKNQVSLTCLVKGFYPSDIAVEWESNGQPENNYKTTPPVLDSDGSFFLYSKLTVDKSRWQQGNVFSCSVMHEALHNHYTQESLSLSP
light: DIVMTQSPLSLPVTPGEPASISCQASESLVHSNRNTYLHWYLQKPGQSPQLLIYKVSNRFSGVPDRFSGSGSGTDFTLKISRVEAEDVGVYYCSQNTHVPPTFGQGTKVEIERTVAAPSVFIFPPSDEQLKSGTASVVCLLNNFYPREAKVQWKVDNALQSGNSQESVTEQDSKDSTYSLSSTLTLSKADYEKHKVYACEVTHQGLSSPVTKSFNRGEC
notes: as for B3
B9: GpH7-B3 variant K326_12R/GpL16-k0 (antibody, human IgG1, kappa)
heavy: not shown
light: DIVMTQSPLSLPVTPGEPASISCQASESLVHSNRNTYLHWYLQKPGQSPQLLIYKVSNRFSGVPDRFSGSGSGTDFTLKISRVEAEDVGVYYCSQNTHVPPTFGQGTKVEIERTVAAPSVFIFPPSDEQLKSGTASVVCLLNNFYPREAKVQWKVDNALQSGNSQESVTEQDSKDSTYSLSSTLTLSKADYEKHKVYACEVTHQGLSSPVTKSFNRGEC
notes: as for B3
B10: GpH7-B3 variant K334_19Q/GpL16-k0 (antibody, human IgG1, kappa)
heavy: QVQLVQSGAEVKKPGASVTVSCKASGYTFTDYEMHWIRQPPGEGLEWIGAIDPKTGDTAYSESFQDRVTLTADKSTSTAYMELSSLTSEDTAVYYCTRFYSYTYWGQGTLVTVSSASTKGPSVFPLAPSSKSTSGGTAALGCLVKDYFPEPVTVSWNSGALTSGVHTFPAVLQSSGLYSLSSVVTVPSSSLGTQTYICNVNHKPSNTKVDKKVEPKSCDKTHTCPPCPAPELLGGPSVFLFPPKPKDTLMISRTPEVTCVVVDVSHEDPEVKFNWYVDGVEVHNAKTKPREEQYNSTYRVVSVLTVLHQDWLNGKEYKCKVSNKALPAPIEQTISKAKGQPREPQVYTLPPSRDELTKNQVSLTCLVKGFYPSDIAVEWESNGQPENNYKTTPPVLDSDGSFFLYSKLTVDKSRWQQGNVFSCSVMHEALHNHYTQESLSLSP
light: DIVMTQSPLSLPVTPGEPASISCQASESLVHSNRNTYLHWYLQKPGQSPQLLIYKVSNRFSGVPDRFSGSGSGTDFTLKISRVEAEDVGVYYCSQNTHVPPTFGQGTKVEIERTVAAPSVFIFPPSDEQLKSGTASVVCLLNNFYPREAKVQWKVDNALQSGNSQESVTEQDSKDSTYSLSSTLTLSKADYEKHKVYACEVTHQGLSSPVTKSFNRGEC
notes: as for B3
B11: GpH7-B3 variant G236_14T/GpL16-k0 (antibody, human IgG1, kappa)
heavy: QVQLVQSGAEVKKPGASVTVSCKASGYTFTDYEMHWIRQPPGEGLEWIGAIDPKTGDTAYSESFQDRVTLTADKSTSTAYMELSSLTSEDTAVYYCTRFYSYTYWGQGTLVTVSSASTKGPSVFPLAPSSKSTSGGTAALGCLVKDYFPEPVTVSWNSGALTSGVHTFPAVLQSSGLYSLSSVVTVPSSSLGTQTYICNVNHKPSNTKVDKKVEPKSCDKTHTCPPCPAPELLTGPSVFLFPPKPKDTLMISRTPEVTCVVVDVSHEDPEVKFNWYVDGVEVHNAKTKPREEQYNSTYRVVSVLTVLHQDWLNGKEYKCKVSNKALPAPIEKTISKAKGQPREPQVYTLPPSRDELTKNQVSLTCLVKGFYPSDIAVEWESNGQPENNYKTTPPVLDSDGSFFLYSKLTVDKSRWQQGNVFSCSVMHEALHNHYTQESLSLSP
light: DIVMTQSPLSLPVTPGEPASISCQASESLVHSNRNTYLHWYLQKPGQSPQLLIYKVSNRFSGVPDRFSGSGSGTDFTLKISRVEAEDVGVYYCSQNTHVPPTFGQGTKVEIERTVAAPSVFIFPPSDEQLKSGTASVVCLLNNFYPREAKVQWKVDNALQSGNSQESVTEQDSKDSTYSLSSTLTLSKADYEKHKVYACEVTHQGLSSPVTKSFNRGEC
notes: as for B3
B12: GpH7-B3 variant L234_04F/GpL16-k0 (antibody, human IgG1, kappa)
heavy: not shown
light: DIVMTQSPLSLPVTPGEPASISCQASESLVHSNRNTYLHWYLQKPGQSPQLLIYKVSNRFSGVPDRFSGSGSGTDFTLKISRVEAEDVGVYYCSQNTHVPPTFGQGTKVEIERTVAAPSVFIFPPSDEQLKSGTASVVCLLNNFYPREAKVQWKVDNALQSGNSQESVTEQDSKDSTYSLSSTLTLSKADYEKHKVYACEVTHQGLSSPVTKSFNRGEC
notes: as for B3
B13: GpH7-B3 variant G236_15Y/GpL16-k0 (antibody, human IgG1, kappa)
heavy: not shown
light: DIVMTQSPLSLPVTPGEPASISCQASESLVHSNRNTYLHWYLQKPGQSPQLLIYKVSNRFSGVPDRFSGSGSGTDFTLKISRVEAEDVGVYYCSQNTHVPPTFGQGTKVEIERTVAAPSVFIFPPSDEQLKSGTASVVCLLNNFYPREAKVQWKVDNALQSGNSQESVTEQDSKDSTYSLSSTLTLSKADYEKHKVYACEVTHQGLSSPVTKSFNRGEC
notes: as for B3
B14: GpH7-B3 variant I336_03V/GpL16-k0 (antibody, human IgG1, kappa)
heavy: not shown
light: DIVMTQSPLSLPVTPGEPASISCQASESLVHSNRNTYLHWYLQKPGQSPQLLIYKVSNRFSGVPDRFSGSGSGTDFTLKISRVEAEDVGVYYCSQNTHVPPTFGQGTKVEIERTVAAPSVFIFPPSDEQLKSGTASVVCLLNNFYPREAKVQWKVDNALQSGNSQESVTEQDSKDSTYSLSSTLTLSKADYEKHKVYACEVTHQGLSSPVTKSFNRGEC
notes: as for B3
B15: GpH7-B3 variant S267_10E/GpL16-k0 (antibody, human IgG1, kappa)
heavy: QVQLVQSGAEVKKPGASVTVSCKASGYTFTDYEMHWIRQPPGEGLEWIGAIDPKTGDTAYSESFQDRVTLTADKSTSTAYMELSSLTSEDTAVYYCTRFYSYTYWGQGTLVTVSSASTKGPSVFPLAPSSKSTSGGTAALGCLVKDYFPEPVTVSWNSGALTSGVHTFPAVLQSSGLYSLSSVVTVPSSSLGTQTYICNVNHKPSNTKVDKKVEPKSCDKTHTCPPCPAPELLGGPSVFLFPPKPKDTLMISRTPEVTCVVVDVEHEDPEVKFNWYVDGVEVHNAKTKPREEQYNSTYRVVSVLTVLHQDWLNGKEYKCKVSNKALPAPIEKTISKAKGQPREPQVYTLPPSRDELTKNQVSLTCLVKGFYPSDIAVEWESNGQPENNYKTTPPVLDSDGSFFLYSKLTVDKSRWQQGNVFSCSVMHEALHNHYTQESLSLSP
light: DIVMTQSPLSLPVTPGEPASISCQASESLVHSNRNTYLHWYLQKPGQSPQLLIYKVSNRFSGVPDRFSGSGSGTDFTLKISRVEAEDVGVYYCSQNTHVPPTFGQGTKVEIERTVAAPSVFIFPPSDEQLKSGTASVVCLLNNFYPREAKVQWKVDNALQSGNSQESVTEQDSKDSTYSLSSTLTLSKADYEKHKVYACEVTHQGLSSPVTKSFNRGEC
notes: as for B3
B16: GpH7-B3 variant S239_10E/GpL16-k0 (antibody, human IgG1, kappa)
heavy: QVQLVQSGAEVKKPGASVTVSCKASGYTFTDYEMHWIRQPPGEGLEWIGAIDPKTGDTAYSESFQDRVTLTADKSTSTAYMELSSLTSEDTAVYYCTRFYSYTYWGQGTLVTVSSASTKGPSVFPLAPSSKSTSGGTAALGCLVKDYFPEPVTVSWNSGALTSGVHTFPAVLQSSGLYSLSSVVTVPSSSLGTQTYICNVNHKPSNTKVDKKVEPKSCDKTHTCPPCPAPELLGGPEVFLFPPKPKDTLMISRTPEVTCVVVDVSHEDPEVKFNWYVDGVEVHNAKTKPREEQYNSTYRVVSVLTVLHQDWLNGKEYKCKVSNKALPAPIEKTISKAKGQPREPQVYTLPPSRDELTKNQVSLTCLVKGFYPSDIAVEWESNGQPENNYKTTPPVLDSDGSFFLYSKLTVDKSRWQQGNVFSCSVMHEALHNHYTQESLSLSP
light: DIVMTQSPLSLPVTPGEPASISCQASESLVHSNRNTYLHWYLQKPGQSPQLLIYKVSNRFSGVPDRFSGSGSGTDFTLKISRVEAEDVGVYYCSQNTHVPPTFGQGTKVEIERTVAAPSVFIFPPSDEQLKSGTASVVCLLNNFYPREAKVQWKVDNALQSGNSQESVTEQDSKDSTYSLSSTLTLSKADYEKHKVYACEVTHQGLSSPVTKSFNRGEC
notes: as for B3
B17: GpH7-B3 variant I336_10E/GpL16-k0 (antibody, human IgG1, kappa)
heavy: not shown
light: DIVMTQSPLSLPVTPGEPASISCQASESLVHSNRNTYLHWYLQKPGQSPQLLIYKVSNRFSGVPDRFSGSGSGTDFTLKISRVEAEDVGVYYCSQNTHVPPTFGQGTKVEIERTVAAPSVFIFPPSDEQLKSGTASVVCLLNNFYPREAKVQWKVDNALQSGNSQESVTEQDSKDSTYSLSSTLTLSKADYEKHKVYACEVTHQGLSSPVTKSFNRGEC
notes: as for B3
B18: GpH7-B3 variant S337_07I/GpL16-k0 (antibody, human IgG1, kappa)
heavy: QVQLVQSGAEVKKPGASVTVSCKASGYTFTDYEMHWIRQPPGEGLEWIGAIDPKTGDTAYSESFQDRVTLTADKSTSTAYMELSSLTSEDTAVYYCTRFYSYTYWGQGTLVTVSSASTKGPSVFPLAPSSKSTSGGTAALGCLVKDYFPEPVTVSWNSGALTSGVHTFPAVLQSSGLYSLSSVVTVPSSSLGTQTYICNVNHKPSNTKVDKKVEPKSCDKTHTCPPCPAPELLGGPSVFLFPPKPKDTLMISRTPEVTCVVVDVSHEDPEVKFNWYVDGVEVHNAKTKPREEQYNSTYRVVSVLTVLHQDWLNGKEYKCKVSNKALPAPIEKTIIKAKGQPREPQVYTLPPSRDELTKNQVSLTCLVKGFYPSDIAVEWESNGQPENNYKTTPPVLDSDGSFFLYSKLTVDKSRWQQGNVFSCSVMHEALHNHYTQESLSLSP
light: DIVMTQSPLSLPVTPGEPASISCQASESLVHSNRNTYLHWYLQKPGQSPQLLIYKVSNRFSGVPDRFSGSGSGTDFTLKISRVEAEDVGVYYCSQNTHVPPTFGQGTKVEIERTVAAPSVFIFPPSDEQLKSGTASVVCLLNNFYPREAKVQWKVDNALQSGNSQESVTEQDSKDSTYSLSSTLTLSKADYEKHKVYACEVTHQGLSSPVTKSFNRGEC
notes: as for B3
B19: GpH7-B3 variant S239_08L/GpL16-k0 (antibody, human IgG1, kappa)
heavy: not shown
light: DIVMTQSPLSLPVTPGEPASISCQASESLVHSNRNTYLHWYLQKPGQSPQLLIYKVSNRFSGVPDRFSGSGSGTDFTLKISRVEAEDVGVYYCSQNTHVPPTFGQGTKVEIERTVAAPSVFIFPPSDEQLKSGTASVVCLLNNFYPREAKVQWKVDNALQSGNSQESVTEQDSKDSTYSLSSTLTLSKADYEKHKVYACEVTHQGLSSPVTKSFNRGEC
notes: as for B3
B20: GpH7-B3 variant S267_09D/GpL16-k0 (antibody, human IgG1, kappa)
heavy: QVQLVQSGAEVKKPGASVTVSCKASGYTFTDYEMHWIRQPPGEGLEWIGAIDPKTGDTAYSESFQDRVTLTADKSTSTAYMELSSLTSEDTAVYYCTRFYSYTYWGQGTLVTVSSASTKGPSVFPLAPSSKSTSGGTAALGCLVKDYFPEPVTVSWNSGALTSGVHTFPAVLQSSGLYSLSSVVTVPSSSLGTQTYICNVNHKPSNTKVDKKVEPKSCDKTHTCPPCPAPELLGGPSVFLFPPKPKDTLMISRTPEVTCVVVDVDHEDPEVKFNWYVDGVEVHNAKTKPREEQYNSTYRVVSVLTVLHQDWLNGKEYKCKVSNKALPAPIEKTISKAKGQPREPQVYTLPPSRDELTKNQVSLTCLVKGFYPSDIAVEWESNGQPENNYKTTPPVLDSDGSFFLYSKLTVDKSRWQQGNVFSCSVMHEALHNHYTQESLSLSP
light: DIVMTQSPLSLPVTPGEPASISCQASESLVHSNRNTYLHWYLQKPGQSPQLLIYKVSNRFSGVPDRFSGSGSGTDFTLKISRVEAEDVGVYYCSQNTHVPPTFGQGTKVEIERTVAAPSVFIFPPSDEQLKSGTASVVCLLNNFYPREAKVQWKVDNALQSGNSQESVTEQDSKDSTYSLSSTLTLSKADYEKHKVYACEVTHQGLSSPVTKSFNRGEC
notes: as for B3
B21: GpH7-B3 variant L234_20W/GpL16-k0 (antibody, human IgG1, kappa)
heavy: not shown
light: DIVMTQSPLSLPVTPGEPASISCQASESLVHSNRNTYLHWYLQKPGQSPQLLIYKVSNRFSGVPDRFSGSGSGTDFTLKISRVEAEDVGVYYCSQNTHVPPTFGQGTKVEIERTVAAPSVFIFPPSDEQLKSGTASVVCLLNNFYPREAKVQWKVDNALQSGNSQESVTEQDSKDSTYSLSSTLTLSKADYEKHKVYACEVTHQGLSSPVTKSFNRGEC
notes: as for B3

T1 sequence (P12318 34-217): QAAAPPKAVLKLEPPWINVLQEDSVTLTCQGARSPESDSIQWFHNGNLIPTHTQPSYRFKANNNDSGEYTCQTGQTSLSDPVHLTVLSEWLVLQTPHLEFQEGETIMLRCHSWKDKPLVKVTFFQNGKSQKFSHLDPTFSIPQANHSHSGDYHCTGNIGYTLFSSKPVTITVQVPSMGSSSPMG

One assay has as its target T1, FcγRIIa H (human FcγRIIa, allotype with His at position 131), extracellular domain with C-terminal His tag (human, UniProt P12318 34-217). Put plainly: SPR (Biacore), antibody captured on antigen peptide chip, FcγR as analyte; relative to HeCon Ab GpH7-A5/GpH7-B3/GpL16-k0 = 100.
The molecule B1 yielded a He/Con_2aH of 100 control = 100.

For B2, the He/Con_2aH amounted to 102 control = 100.

In the next assay the target is T1, FcγRIIa H (human FcγRIIa, allotype with …). As to the kind of experiment: SPR (Biacore), antibody captured on antigen peptide chip, FcγR as analyte; relative to HoCon Ab GpH7-B3/GpL16-k0 = 100. A general note: SPR reads the build-up and loss of mass on a sensor chip optically.
In turn, B3 had a Ho/Con_2aH of 94.9 control = 100.

B4 yielded a Ho/Con_2aH of 63.2 control = 100.

In the case of B5, the Ho/Con_2aH turned out to be 78.1 control = 100.

The molecule B6 returned a Ho/Con_2aH of 98.2 control = 100.

Molecule B7 registered a Ho/Con_2aH of 94.3 control = 100.

In the case of B8, the Ho/Con_2aH turned out to be 43.8 control = 100.

Turning to B9, the Ho/Con_2aH is 98.8 control = 100.

For the molecule B10, the Ho/Con_2aH was found to be 97.2 control = 100.

Molecule B11 gave a Ho/Con_2aH of 94.2 control = 100.

The molecule B12 returned a Ho/Con_2aH of 54.2 control = 100.

Consider B13, for which the Ho/Con_2aH amounted to 80.4 control = 100.

Molecule B14 had a Ho/Con_2aH of 90.4 control = 100.

Molecule B15 showed a Ho/Con_2aH of 98.5 control = 100.

As to B16, the Ho/Con_2aH came out at 91.4 control = 100.

For the molecule B17, the Ho/Con_2aH worked out at 93.4 control = 100.

The molecule B18 returned a Ho/Con_2aH of 94 control = 100.

In turn, B19 returned a Ho/Con_2aH of 87 control = 100.

With B20, the Ho/Con_2aH stood at 91.5 control = 100.

The molecule B21 came in with a Ho/Con_2aH of 55.3 control = 100.
